Here are results for one substance from article PMC9638894.

In experiment [1] the target is type IF CRISPR RNA guided surveillance complex (Csy) (UniProt Q02MM2). Kind of experiment: ITC; AcrIF9 or AcrIF2 binding to the Csy complex; conditions not told in the text shown (Supplemental Figure S8). A general note: In ITC the heat of successive injections is recorded.
Experiment [2] has the same target. In words: differential scanning fluorimetry; purified Csy (0.323 uM) or AcrIF2-bound Csy (0.475 uM) in 100 mM citrate phosphate buffer pH 7.5 with SYPRO orange; 25°C to 95°C at 1°C/min; maximum intensity of each curve compared.

AcrIF2 (natural protein), sequence (Q6TM72 whole entry): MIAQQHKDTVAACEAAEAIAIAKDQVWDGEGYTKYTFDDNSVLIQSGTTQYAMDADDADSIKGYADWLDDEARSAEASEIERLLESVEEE

In experiment [1], AcrIF2 (natural protein) returned a dH of less than 0. In experiment [2], the increase in temperature at the maximum DSF intensity compared to unbound Csy came out at 3 °C.
